Measured values: US20130157953A1, “TREATMENT OF CARDIAC CONDITIONS” (Zealand Pharma A/S, priority 2010, published 2013)
Numbered stars: 1 amine (or outer) side, 2 acyl side, 3 side chain; on linkers, the order of the positions; unused ones are H or OH. Bridge positions count the residues as written; N and C are the ends. Square brackets hold non-standard residues; d marks the D form. Side chains are listed from the residue outwards. * marks the point of attachment. γGlu = O=C(O)[C@H](CCC(=O)[*:2])N[*:1]; Palmitoyl = CCCCCCCCCCCCCCCC(=O)*; Aib = CC(C)(N)C(=O)O

Tests used:
[1] = target: human glucagon-like peptide 1 receptor (GLP-1R) (human, UniProt P43220 24-463); assay: cell-based or functional assay
[2] = target: human glucagon receptor (Glucagon-R) (human, UniProt P47871 26-477); assay: cell-based or functional assay
human glucagon receptor (Glucagon-R), sequence (P47871 26-477): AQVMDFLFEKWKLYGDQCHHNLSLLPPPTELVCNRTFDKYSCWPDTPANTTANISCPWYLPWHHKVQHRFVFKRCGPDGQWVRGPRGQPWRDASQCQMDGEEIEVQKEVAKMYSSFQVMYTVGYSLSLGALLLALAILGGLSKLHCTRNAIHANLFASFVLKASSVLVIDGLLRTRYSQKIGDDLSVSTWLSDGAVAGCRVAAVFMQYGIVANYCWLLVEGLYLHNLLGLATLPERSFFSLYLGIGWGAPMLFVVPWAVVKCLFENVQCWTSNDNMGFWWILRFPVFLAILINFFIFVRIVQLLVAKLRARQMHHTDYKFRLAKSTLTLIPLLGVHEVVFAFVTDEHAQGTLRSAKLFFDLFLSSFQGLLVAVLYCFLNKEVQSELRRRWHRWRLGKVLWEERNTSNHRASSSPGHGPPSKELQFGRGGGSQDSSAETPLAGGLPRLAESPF

Row | Binder | EC50 (nM) GLP-1R; cAMP content, HEK293 cells expressing human GLP-1R [1] [nM] | EC50 (nM) GuR; cAMP content, HEK293 cells expressing the human glucagon receptor [2] [nM]
1 | H-HSQGTFTSDYSKYLDSK([γGlu-Palmitoyl])AAHDFVEWLLRA-NH2 (SMILES CCCCCCCCCCCCCCCC(=O)N[C@@H](CCC(=O)NCCCC[C@H](NC(=O)[C@H](CO)NC(=O)[C@H](CC(=O)O)NC(=O)[C@H](CC(C)C)NC(=O)[C@H](Cc1ccc(O)cc1)NC(=O)[C@H](CCCCN)NC(=O)[C@H](CO)NC(=O)[C@H](Cc1ccc(O)cc1)NC(=O)[C@H](CC(=O)O)NC(=O)[C@H](CO)NC(=O)[C@@H](NC(=O)[C@H](Cc1ccccc1)NC(=O)[C@@H](NC(=O)CNC(=O)[C@H](CCC(N)=O)NC(=O)[C@H](CO)NC(=O)[C@@H](N)Cc1c[nH]cn1)[C@@H](C)O)[C@@H](C)O)C(=O)N[C@@H](C)C(=O)N[C@@H](C)C(=O)N[C@@H](Cc1c[nH]cn1)C(=O)N[C@@H](CC(=O)O)C(=O)N[C@@H](Cc1ccccc1)C(=O)N[C@H](C(=O)N[C@@H](CCC(=O)O)C(=O)N[C@@H](Cc1c[nH]c2ccccc12)C(=O)N[C@@H](CC(C)C)C(=O)N[C@@H](CC(C)C)C(=O)N[C@@H](CCCNC(=N)N)C(=O)N[C@@H](C)C(N)=O)C(C)C)C(=O)O) [Compound 262] | 0.11 | 0.12
2 | H-HSQGTFTSDYSKYLDSKAAQDFVWLMNT-NH2 [Compound 260] | 0.02 | 0.07
3 | H-HSQGTFTSDYSKYLDKRRAEDFVWLMNT-NH2 [Compound 256] | 0.2 | 0.07
4 | H-HSQGTFTSDYSKYLDSKAAHDFVEWLK([γGlu-Palmitoyl])RA-NH2 (SMILES CCCCCCCCCCCCCCCC(=O)N[C@@H](CCC(=O)NCCCC[C@H](NC(=O)[C@H](CC(C)C)NC(=O)[C@H](Cc1c[nH]c2ccccc12)NC(=O)[C@H](CCC(=O)O)NC(=O)[C@@H](NC(=O)[C@H](Cc1ccccc1)NC(=O)[C@H](CC(=O)O)NC(=O)[C@H](Cc1c[nH]cn1)NC(=O)[C@H](C)NC(=O)[C@H](C)NC(=O)[C@H](CCCCN)NC(=O)[C@H](CO)NC(=O)[C@H](CC(=O)O)NC(=O)[C@H](CC(C)C)NC(=O)[C@H](Cc1ccc(O)cc1)NC(=O)[C@H](CCCCN)NC(=O)[C@H](CO)NC(=O)[C@H](Cc1ccc(O)cc1)NC(=O)[C@H](CC(=O)O)NC(=O)[C@H](CO)NC(=O)[C@@H](NC(=O)[C@H](Cc1ccccc1)NC(=O)[C@@H](NC(=O)CNC(=O)[C@H](CCC(N)=O)NC(=O)[C@H](CO)NC(=O)[C@@H](N)Cc1c[nH]cn1)[C@@H](C)O)[C@@H](C)O)C(C)C)C(=O)N[C@@H](CCCNC(=N)N)C(=O)N[C@@H](C)C(N)=O)C(=O)O) [Compound 203] | 0.57 | 0.22
5 | H-HSQGTFTSDYSRYLDERRAQDFVWLMNT-NH2 [Compound 258] | 0.07 | 0.06
6 | H-HSQGTFTSDYSKYLDSKAAHDFVEWLLRA-NH2 [Compound 48] | 0.06 | 0.06
7 | H-HSQGTFTSDYSAYLDSRRAQDFVWLMNT-NH2 [Compound 242] | 1.4 | 0.4
8 | H-HSQGTFTSDYSKYLDSKAAHDFVEWLLKA-NH2 (lactam 24-28; SMILES CC(C)C[C@@H]1NC(=O)[C@H](CC(C)C)NC(=O)[C@H](Cc2c[nH]c3ccccc23)NC(=O)[C@@H](NC(=O)[C@@H](NC(=O)[C@H](Cc2ccccc2)NC(=O)[C@H](CC(=O)O)NC(=O)[C@H](Cc2c[nH]cn2)NC(=O)[C@H](C)NC(=O)[C@H](C)NC(=O)[C@H](CCCCN)NC(=O)[C@H](CO)NC(=O)[C@H](CC(=O)O)NC(=O)[C@H](CC(C)C)NC(=O)[C@H](Cc2ccc(O)cc2)NC(=O)[C@H](CCCCN)NC(=O)[C@H](CO)NC(=O)[C@H](Cc2ccc(O)cc2)NC(=O)[C@H](CC(=O)O)NC(=O)[C@H](CO)NC(=O)[C@@H](NC(=O)[C@H](Cc2ccccc2)NC(=O)[C@@H](NC(=O)CNC(=O)[C@H](CCC(N)=O)NC(=O)[C@H](CO)NC(=O)[C@@H](N)Cc2c[nH]cn2)[C@@H](C)O)[C@@H](C)O)C(C)C)CCC(=O)NCCCC[C@@H](C(=O)N[C@@H](C)C(N)=O)NC1=O) [Compound 261] | 0.03 | 0.07
9 | H-H[Aib]QGTFTSDYSKYLDSKAAHDFVEWLLRA-NH2 (SMILES CC(C)C[C@H](NC(=O)[C@H](CC(C)C)NC(=O)[C@H](Cc1c[nH]c2ccccc12)NC(=O)[C@H](CCC(=O)O)NC(=O)[C@@H](NC(=O)[C@H](Cc1ccccc1)NC(=O)[C@H](CC(=O)O)NC(=O)[C@H](Cc1c[nH]cn1)NC(=O)[C@H](C)NC(=O)[C@H](C)NC(=O)[C@H](CCCCN)NC(=O)[C@H](CO)NC(=O)[C@H](CC(=O)O)NC(=O)[C@H](CC(C)C)NC(=O)[C@H](Cc1ccc(O)cc1)NC(=O)[C@H](CCCCN)NC(=O)[C@H](CO)NC(=O)[C@H](Cc1ccc(O)cc1)NC(=O)[C@H](CC(=O)O)NC(=O)[C@H](CO)NC(=O)[C@@H](NC(=O)[C@H](Cc1ccccc1)NC(=O)[C@@H](NC(=O)CNC(=O)[C@H](CCC(N)=O)NC(=O)C(C)(C)NC(=O)[C@@H](N)Cc1c[nH]cn1)[C@@H](C)O)[C@@H](C)O)C(C)C)C(=O)N[C@@H](CCCNC(=N)N)C(=O)N[C@@H](C)C(N)=O) [Compound 45] | 0.08 | 0.06
10 | H-HSQGTFTSDYSKYLDRARADDFVAWLKST-NH2 [Compound 12] | 0.23 | 0.5
11 | H-HSQGTFTSDYSKYLDERRAQDFVWLMNT-NH2 (lactam 12-16; SMILES CSCC[C@H](NC(=O)[C@H](CC(C)C)NC(=O)[C@H](Cc1c[nH]c2ccccc12)NC(=O)[C@@H](NC(=O)[C@H](Cc1ccccc1)NC(=O)[C@H](CC(=O)O)NC(=O)[C@H](CCC(N)=O)NC(=O)[C@H](C)NC(=O)[C@H](CCCNC(=N)N)NC(=O)[C@H](CCCNC(=N)N)NC(=O)[C@@H]1CCC(=O)NCCCC[C@H](NC(=O)[C@H](CO)NC(=O)[C@H](Cc2ccc(O)cc2)NC(=O)[C@H](CC(=O)O)NC(=O)[C@H](CO)NC(=O)[C@@H](NC(=O)[C@H](Cc2ccccc2)NC(=O)[C@@H](NC(=O)CNC(=O)[C@H](CCC(N)=O)NC(=O)[C@H](CO)NC(=O)[C@@H](N)Cc2c[nH]cn2)[C@@H](C)O)[C@@H](C)O)C(=O)N[C@@H](Cc2ccc(O)cc2)C(=O)N[C@@H](CC(C)C)C(=O)N[C@@H](CC(=O)O)C(=O)N1)C(C)C)C(=O)N[C@@H](CC(N)=O)C(=O)N[C@H](C(N)=O)[C@@H](C)O) [Compound 259] | 0.04 | 0.03
12 | H-HSQGTFTSDYSKYLDK([γGlu-Palmitoyl])KAAHDFVEWLLRA-NH2 (SMILES CCCCCCCCCCCCCCCC(=O)N[C@@H](CCC(=O)NCCCC[C@H](NC(=O)[C@H](CC(=O)O)NC(=O)[C@H](CC(C)C)NC(=O)[C@H](Cc1ccc(O)cc1)NC(=O)[C@H](CCCCN)NC(=O)[C@H](CO)NC(=O)[C@H](Cc1ccc(O)cc1)NC(=O)[C@H](CC(=O)O)NC(=O)[C@H](CO)NC(=O)[C@@H](NC(=O)[C@H](Cc1ccccc1)NC(=O)[C@@H](NC(=O)CNC(=O)[C@H](CCC(N)=O)NC(=O)[C@H](CO)NC(=O)[C@@H](N)Cc1c[nH]cn1)[C@@H](C)O)[C@@H](C)O)C(=O)N[C@@H](CCCCN)C(=O)N[C@@H](C)C(=O)N[C@@H](C)C(=O)N[C@@H](Cc1c[nH]cn1)C(=O)N[C@@H](CC(=O)O)C(=O)N[C@@H](Cc1ccccc1)C(=O)N[C@H](C(=O)N[C@@H](CCC(=O)O)C(=O)N[C@@H](Cc1c[nH]c2ccccc12)C(=O)N[C@@H](CC(C)C)C(=O)N[C@@H](CC(C)C)C(=O)N[C@@H](CCCNC(=N)N)C(=O)N[C@@H](C)C(N)=O)C(C)C)C(=O)O) [Compound 202] | 0.2 | 0.13
13 | H-H[dS]QGTFTSDYSKYLDSKAAHDFVEWLLRA-NH2 (SMILES CC(C)C[C@H](NC(=O)[C@H](CC(C)C)NC(=O)[C@H](Cc1c[nH]c2ccccc12)NC(=O)[C@H](CCC(=O)O)NC(=O)[C@@H](NC(=O)[C@H](Cc1ccccc1)NC(=O)[C@H](CC(=O)O)NC(=O)[C@H](Cc1c[nH]cn1)NC(=O)[C@H](C)NC(=O)[C@H](C)NC(=O)[C@H](CCCCN)NC(=O)[C@H](CO)NC(=O)[C@H](CC(=O)O)NC(=O)[C@H](CC(C)C)NC(=O)[C@H](Cc1ccc(O)cc1)NC(=O)[C@H](CCCCN)NC(=O)[C@H](CO)NC(=O)[C@H](Cc1ccc(O)cc1)NC(=O)[C@H](CC(=O)O)NC(=O)[C@H](CO)NC(=O)[C@@H](NC(=O)[C@H](Cc1ccccc1)NC(=O)[C@@H](NC(=O)CNC(=O)[C@H](CCC(N)=O)NC(=O)[C@@H](CO)NC(=O)[C@@H](N)Cc1c[nH]cn1)[C@@H](C)O)[C@@H](C)O)C(C)C)C(=O)N[C@@H](CCCNC(=N)N)C(=O)N[C@@H](C)C(N)=O) [Compound 44] | 0.09 | 0.11
